Source: patent publication US20090023900 (published 2009)

What was measured:
integrin alphaIIbbeta3 = integrin alphaIIbbeta3 (human, UniProt P08514); test: ELISA
integrin alphaVbeta5 = target: T1, integrin alphaVbeta5 (human, UniProt P06756); test: ELISA
T1 chain 1: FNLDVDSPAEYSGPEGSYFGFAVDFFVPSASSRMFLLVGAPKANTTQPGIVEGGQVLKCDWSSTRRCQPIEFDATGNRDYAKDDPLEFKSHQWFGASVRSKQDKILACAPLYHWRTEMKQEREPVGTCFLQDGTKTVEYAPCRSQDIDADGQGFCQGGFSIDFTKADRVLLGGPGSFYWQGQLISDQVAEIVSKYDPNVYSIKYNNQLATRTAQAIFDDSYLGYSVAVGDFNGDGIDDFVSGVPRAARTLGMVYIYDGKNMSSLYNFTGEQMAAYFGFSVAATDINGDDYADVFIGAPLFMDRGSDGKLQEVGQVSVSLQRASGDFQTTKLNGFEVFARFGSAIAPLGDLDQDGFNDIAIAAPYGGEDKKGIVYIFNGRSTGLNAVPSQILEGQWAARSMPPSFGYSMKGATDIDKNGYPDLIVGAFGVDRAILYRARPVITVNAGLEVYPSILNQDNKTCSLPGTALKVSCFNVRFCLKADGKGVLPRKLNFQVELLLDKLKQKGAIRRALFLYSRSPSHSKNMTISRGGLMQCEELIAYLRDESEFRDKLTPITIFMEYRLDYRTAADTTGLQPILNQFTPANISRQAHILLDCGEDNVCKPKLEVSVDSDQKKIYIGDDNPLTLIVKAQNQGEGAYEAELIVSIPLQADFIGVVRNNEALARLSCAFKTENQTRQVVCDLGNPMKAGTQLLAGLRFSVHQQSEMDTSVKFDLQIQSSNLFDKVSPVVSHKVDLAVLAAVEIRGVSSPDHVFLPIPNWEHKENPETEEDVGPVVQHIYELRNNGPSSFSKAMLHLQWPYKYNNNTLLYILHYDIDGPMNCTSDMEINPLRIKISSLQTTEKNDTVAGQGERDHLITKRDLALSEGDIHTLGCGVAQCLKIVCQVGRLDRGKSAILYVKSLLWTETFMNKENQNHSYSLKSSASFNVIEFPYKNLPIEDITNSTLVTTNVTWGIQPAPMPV
T1 chain 2: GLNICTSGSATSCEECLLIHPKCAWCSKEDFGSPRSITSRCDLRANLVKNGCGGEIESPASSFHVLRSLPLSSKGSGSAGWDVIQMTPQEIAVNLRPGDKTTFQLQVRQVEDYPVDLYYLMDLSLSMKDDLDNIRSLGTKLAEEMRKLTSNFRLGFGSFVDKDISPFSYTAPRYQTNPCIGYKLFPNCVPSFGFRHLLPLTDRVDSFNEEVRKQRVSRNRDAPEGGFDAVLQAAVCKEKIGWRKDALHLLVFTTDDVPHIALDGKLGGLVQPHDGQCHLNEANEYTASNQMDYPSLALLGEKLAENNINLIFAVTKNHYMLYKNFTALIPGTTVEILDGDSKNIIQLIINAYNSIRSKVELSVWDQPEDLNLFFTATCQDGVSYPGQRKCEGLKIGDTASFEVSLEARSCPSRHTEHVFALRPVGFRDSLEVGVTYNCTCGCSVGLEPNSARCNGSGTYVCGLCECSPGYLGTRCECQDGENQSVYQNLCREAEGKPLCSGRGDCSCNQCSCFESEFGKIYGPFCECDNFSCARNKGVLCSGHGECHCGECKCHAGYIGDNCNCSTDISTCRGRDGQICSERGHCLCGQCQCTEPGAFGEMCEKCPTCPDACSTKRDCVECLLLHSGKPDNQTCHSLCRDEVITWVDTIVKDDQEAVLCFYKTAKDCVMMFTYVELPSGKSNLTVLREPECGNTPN

B1: Vitaxin (antibody, V domains shown)
VH: QVQLVESGGGVVQPGRSLRLSCAASGFTFSSYDMSWVRQAPGKGLEWVAKVSSGGGSTYYLDTVQGRFTISRDNSKNTLYLQMNSLRAEDTAVYYCARHNYGSFAYWGQGTTVTVSS
VL: EIVLTQSPATLSLSPGERATLSCQASQSISNHLHWYQQRPGQAPRLLIKYRSQSISGIPARFSGSGSGTDFTLTISSLEPEDFAVYYCQQSGSWPHTFGGGTKVEIK
binding result (integrin alphaIIbbeta3): no binding | binding result (integrin alphaVbeta5): no binding
